B1: INTS3 (parent)
chain: FHPIKETVVEEPVDITPYLDQLDE
B2: KCNAB2 (parent)
chain: SSIIHEIDSILGNKPYSKKDYRS

Variants of: B1
Test: protein stability index of a GFP-peptide fusion (GPS, HEK-293T) (PSI 1-6); higher = more stable
Conditions: c terminus: a fixed tail appended
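Note: lentivirally expressed fusions sorted by FACS into six bins by GFP to DsRed ratio, PSI derived from sequencing read proportions per bin multiplied by bin number.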

Variant | protein stability index
FHPIKETVVEEPVDITPYLDQLDR | 2.33
FHPIKETVVEEPVDITPYLDQLDT | 3.09
FHPIKETVVEEPVDITPYLDQLDW | 1.84
FHPIKETVVEEPVDITPYLDQLDP | 2.63
FHPIKETVVEEPVDITPYLDQLDL | 2.85
FHPIKETVVEEPVDITPYLDQLDM | 2.83
FHPIKETVVEEPVDITPYLDQLDI | 2.44
FHPIKETVVEEPVDITPYLDQLDK | 2.42
FHPIKETVVEEPVDITPYLDQLDN | 3.17
FHPIKETVVEEPVDITPYLDQLDQ | 2.7
FHPIKETVVEEPVDITPYLDQLDD | 3.75
FHPIKETVVEEPVDITPYLDQLDF | 1.93
FHPIKETVVEEPVDITPYLDQLDS | 2.9
FHPIKETVVEEPVDITPYLDQLDA | 2.58
FHPIKETVVEEPVDITPYLDQLDV | 2.99
FHPIKETVVEEPVDITPYLDQLDC | 2.77
FHPIKETVVEEPVDITPYLDQLDH | 2.66
FHPIKETVVEEPVDITPYLDQLDY | 2.47
FHPIKETVVEEPVDITPYLDQLDG | 2.73

Variants of: B2
Test: as above
Conditions: c terminus: native

Variant | protein stability index
SSITHEIDSILGNKPYSKKDYRS | 3.95
SSIAHEIDSILGNKPYSKKDYRS | 3.44
SSIEHEIDSILGNKPYSKKDYRS | 3.9
SSIQHEIDSILGNKPYSKKDYRS | 4.26
SSILHEIDSILGNKPYSKKDYRS | 2.56
SSIPHEIDSILGNKPYSKKDYRS | 4.63
SSIMHEIDSILGNKPYSKKDYRS | 2.59
SSIWHEIDSILGNKPYSKKDYRS | 1.4
SSIYHEIDSILGNKPYSKKDYRS | 2.75
SSIGHEIDSILGNKPYSKKDYRS | 2.69
SSIFHEIDSILGNKPYSKKDYRS | 1.29
SSIVHEIDSILGNKPYSKKDYRS | 2.46
SSIDHEIDSILGNKPYSKKDYRS | 4.28
SSISHEIDSILGNKPYSKKDYRS | 3.25
SSIKHEIDSILGNKPYSKKDYRS | 2.81
SSICHEIDSILGNKPYSKKDYRS | 3.6
SSINHEIDSILGNKPYSKKDYRS | 4.51
SSIRHEIDSILGNKPYSKKDYRS | 2.94
SSIHHEIDSILGNKPYSKKDYRS | 2.86
SSAIHEIDSILGNKPYSKKDYRS | 3.94
SSMIHEIDSILGNKPYSKKDYRS | 3.17
SSRIHEIDSILGNKPYSKKDYRS | 4.09
SSDIHEIDSILGNKPYSKKDYRS | 4.67
SSTIHEIDSILGNKPYSKKDYRS | 4.58
SSWIHEIDSILGNKPYSKKDYRS | 1.72

Variant | protein stability index
SSHIHEIDSILGNKPYSKKDYRS | 4
SSFIHEIDSILGNKPYSKKDYRS | 2.83
SSYIHEIDSILGNKPYSKKDYRS | 3.17
SSGIHEIDSILGNKPYSKKDYRS | 4.46
SSCIHEIDSILGNKPYSKKDYRS | 3.85
SSLIHEIDSILGNKPYSKKDYRS | 2.9
SSPIHEIDSILGNKPYSKKDYRS | 3.96
SSVIHEIDSILGNKPYSKKDYRS | 3.61
SSNIHEIDSILGNKPYSKKDYRS | 4.2
SSKIHEIDSILGNKPYSKKDYRS | 2.78
SSQIHEIDSILGNKPYSKKDYRS | 2.53
SSEIHEIDSILGNKPYSKKDYRS | 4.16
SSSIHEIDSILGNKPYSKKDYRS | 4.63
SSIIHEIDSGLGNKPYSKKDYRS | 4.32
SSIIHEIDSQLGNKPYSKKDYRS | 4.47
SSIIHEIDSDLGNKPYSKKDYRS | 4.05
SSIIHEIDSHLGNKPYSKKDYRS | 4.15
SSIIHEIDSNLGNKPYSKKDYRS | 4.38
SSIIHEIDSALGNKPYSKKDYRS | 4.13
SSIIHEIDSLLGNKPYSKKDYRS | 3.12
SSIIHEIDSKLGNKPYSKKDYRS | 4.87
SSIIHEIDSFLGNKPYSKKDYRS | 2.32
SSIIHEIDSMLGNKPYSKKDYRS | 3.32
SSIIHEIDSCLGNKPYSKKDYRS | 3.79
SSIIHEIDSELGNKPYSKKDYRS | 3.45

Variant | protein stability index
SSIIHEIDSPLGNKPYSKKDYRS | 4.38
DSIIHEIDSILGNKPYSKKDYRS | 3.67
GSIIHEIDSILGNKPYSKKDYRS | 3.04
ISIIHEIDSILGNKPYSKKDYRS | 2.67
ASIIHEIDSILGNKPYSKKDYRS | 2.43
QSIIHEIDSILGNKPYSKKDYRS | 2.94
HSIIHEIDSILGNKPYSKKDYRS | 2.46
PSIIHEIDSILGNKPYSKKDYRS | 3.28
TSIIHEIDSILGNKPYSKKDYRS | 2.6
CSIIHEIDSILGNKPYSKKDYRS | 2.47
NSIIHEIDSILGNKPYSKKDYRS | 3.97
ESIIHEIDSILGNKPYSKKDYRS | 2.82
FSIIHEIDSILGNKPYSKKDYRS | 2.06
YSIIHEIDSILGNKPYSKKDYRS | 1.59
LSIIHEIDSILGNKPYSKKDYRS | 2.13
RSIIHEIDSILGNKPYSKKDYRS | 2.78
KSIIHEIDSILGNKPYSKKDYRS | 3.55
MSIIHEIDSILGNKPYSKKDYRS | 1.8
VSIIHEIDSILGNKPYSKKDYRS | 2.34
SSIIHELDSILGNKPYSKKDYRS | 2.86
SSIIHERDSILGNKPYSKKDYRS | 3.86
SSIIHEHDSILGNKPYSKKDYRS | 3.97
SSIIHESDSILGNKPYSKKDYRS | 4.38
SSIIHECDSILGNKPYSKKDYRS | 4.15
SSIIHEFDSILGNKPYSKKDYRS | 2.71

Variant | protein stability index
SSIIHEGDSILGNKPYSKKDYRS | 4.45
SSIIHEYDSILGNKPYSKKDYRS | 4.53
SSIIHEMDSILGNKPYSKKDYRS | 2.75
SSIIHETDSILGNKPYSKKDYRS | 4.7
SSIIHEPDSILGNKPYSKKDYRS | 4.47
SSIIHEKDSILGNKPYSKKDYRS | 3.45
SSIIHEDDSILGNKPYSKKDYRS | 4.4
SSIIHEEDSILGNKPYSKKDYRS | 4.51
SSIIHENDSILGNKPYSKKDYRS | 4.63
SSIIHEQDSILGNKPYSKKDYRS | 4.42
SSIIHEADSILGNKPYSKKDYRS | 4.65
SSIIHEIDHILGNKPYSKKDYRS | 2.8
SSIIHEIDQILGNKPYSKKDYRS | 3.19
SSIIHEIDIILGNKPYSKKDYRS | 2.08
SSIIHEIDRILGNKPYSKKDYRS | 2.58
SSIIHEIDVILGNKPYSKKDYRS | 2.53
SSIIHEIDYILGNKPYSKKDYRS | 2.24
SSIIHEIDAILGNKPYSKKDYRS | 2.48
SSIIHEIDFILGNKPYSKKDYRS | 1.75
SSIIHEIDMILGNKPYSKKDYRS | 2.2
SSIIHEIDEILGNKPYSKKDYRS | 3.66
SSIIHEIDGILGNKPYSKKDYRS | 3.66
SSIIHEIDDILGNKPYSKKDYRS | 2.89
SSIIHEIDNILGNKPYSKKDYRS | 2.94
SSIIHEIDLILGNKPYSKKDYRS | 2.38

Variant | protein stability index
SSIIHEIDWILGNKPYSKKDYRS | 2.9
SSIIHEIDTILGNKPYSKKDYRS | 3.41
SSIIHEIDKILGNKPYSKKDYRS | 3.54
SSIIHEIDPILGNKPYSKKDYRS | 3.81
SQIIHEIDSILGNKPYSKKDYRS | 3.07
SDIIHEIDSILGNKPYSKKDYRS | 3.81
SMIIHEIDSILGNKPYSKKDYRS | 1.98
SLIIHEIDSILGNKPYSKKDYRS | 1.77
SPIIHEIDSILGNKPYSKKDYRS | 3.68
SYIIHEIDSILGNKPYSKKDYRS | 2.24
SNIIHEIDSILGNKPYSKKDYRS | 3.43
SGIIHEIDSILGNKPYSKKDYRS | 3.2
SRIIHEIDSILGNKPYSKKDYRS | 3.13
SHIIHEIDSILGNKPYSKKDYRS | 2.31
STIIHEIDSILGNKPYSKKDYRS | 3.75
SIIIHEIDSILGNKPYSKKDYRS | 1.72
SKIIHEIDSILGNKPYSKKDYRS | 1.66
SWIIHEIDSILGNKPYSKKDYRS | 2.66
SEIIHEIDSILGNKPYSKKDYRS | 4.02
SFIIHEIDSILGNKPYSKKDYRS | 2.4
SVIIHEIDSILGNKPYSKKDYRS | 1.89
SAIIHEIDSILGNKPYSKKDYRS | 2.89
SCIIHEIDSILGNKPYSKKDYRS | 2.22
SSIIHLIDSILGNKPYSKKDYRS | 3.25
SSIIHKIDSILGNKPYSKKDYRS | 3.21

Variant | protein stability index
SSIIHPIDSILGNKPYSKKDYRS | 2.9
SSIIHVIDSILGNKPYSKKDYRS | 3.15
SSIIHHIDSILGNKPYSKKDYRS | 2.31
SSIIHQIDSILGNKPYSKKDYRS | 2.62
SSIIHCIDSILGNKPYSKKDYRS | 1.94
SSIIHIIDSILGNKPYSKKDYRS | 2.01
SSIIHGIDSILGNKPYSKKDYRS | 2.82
SSIIHFIDSILGNKPYSKKDYRS | 3.61
SSIIHWIDSILGNKPYSKKDYRS | 3.44
SSIIHAIDSILGNKPYSKKDYRS | 1.72
SSIIHSIDSILGNKPYSKKDYRS | 2.66
SSIIHDIDSILGNKPYSKKDYRS | 2.97
SSIIHTIDSILGNKPYSKKDYRS | 2.23
SSIIHNIDSILGNKPYSKKDYRS | 3.65
SSIIHRIDSILGNKPYSKKDYRS | 2.26
SSIIHYIDSILGNKPYSKKDYRS | 1.69
SSIIHEIHSILGNKPYSKKDYRS | 2.06
SSIIHEIQSILGNKPYSKKDYRS | 3.06
SSIIHEIPSILGNKPYSKKDYRS | 2.77
SSIIHEIASILGNKPYSKKDYRS | 2.06
SSIIHEIYSILGNKPYSKKDYRS | 2.14
SSIIHEIKSILGNKPYSKKDYRS | 2.07
SSIIHEINSILGNKPYSKKDYRS | 2.69
SSIIHEICSILGNKPYSKKDYRS | 1.59
SSIIHEISSILGNKPYSKKDYRS | 2.45

Variant | protein stability index
SSIIHEIGSILGNKPYSKKDYRS | 2.41
SSIIHEIRSILGNKPYSKKDYRS | 2.84
SSIIHEIESILGNKPYSKKDYRS | 2.16
SSIIHEIVSILGNKPYSKKDYRS | 2.57
SSIIHEITSILGNKPYSKKDYRS | 2.25
SSIICEIDSILGNKPYSKKDYRS | 2.42
SSIIAEIDSILGNKPYSKKDYRS | 3.83
SSIIYEIDSILGNKPYSKKDYRS | 2.05
SSIIKEIDSILGNKPYSKKDYRS | 3.83
SSIIPEIDSILGNKPYSKKDYRS | 3.09
SSIIMEIDSILGNKPYSKKDYRS | 1.76
SSIIQEIDSILGNKPYSKKDYRS | 3.02
SSIIREIDSILGNKPYSKKDYRS | 3.64
SSIIWEIDSILGNKPYSKKDYRS | 2.2
SSIIFEIDSILGNKPYSKKDYRS | 2.21
SSIINEIDSILGNKPYSKKDYRS | 3.44
SSIIGEIDSILGNKPYSKKDYRS | 3.07
SSIISEIDSILGNKPYSKKDYRS | 2.98
SSIIVEIDSILGNKPYSKKDYRS | 2.38
SSIIDEIDSILGNKPYSKKDYRS | 3.7
SSIIIEIDSILGNKPYSKKDYRS | 1.48
SSIILEIDSILGNKPYSKKDYRS | 2.21
SSIITEIDSILGNKPYSKKDYRS | 3.6
SSIIEEIDSILGNKPYSKKDYRS | 2.7

Source: the supplement of paper PMC10567573
